Test results reported in patent US20170051047A1.
Where two headings read alike, the source gives them in different places.

What was measured:
[1] = target: T1, Clostridium difficile toxin A (whole toxin A) (Clostridium difficile), P16154; conditions: remark: other sources report otherwise
[2] = target: T1, Clostridium difficile toxin A (whole …); conditions: remark: other sources report otherwise; remark: listed apart in the source

B1: CAN20G2 (antibody, V domains shown)
VH: QIQLVQSGPEVKKPGETVKISCKASGYTFTNQGMNWVKQAPGKGLKWMGWINTNTGEPTYTEEFKGRFAFSLETSASTAYLQINNLKNEDTATYFCYVNYDYYTMDFWGQGTSVTVSS
VL: QVVLTQSPAIMSASLGDRVTMTCTASSSVISTYLHWYQQKPGSSPKLWIYSTSTLASGVPPRFSGSGSGTSYSLTISSMEAEDAATYYCLQYHRSPRTFGGGTKLEIK
Kd [1]: 0.00419 nM | koff [1]: 4.35e-07 s⁻¹ | kon [1]: 104000 M⁻¹ s⁻¹ | Kd [2]: 0.166 nM | koff [2]: 1.8e-05 s⁻¹ | kon [2]: 108000 M⁻¹ s⁻¹
